What all share (assay type): biochemical, Bacteroides thetaiotaomicron
Conditions in all cases: 50 mM HEPES pH 7.0, 5 mM MgCl2, 37 °C

Substrate in the series “purified protein”: O=[N+]([O-])c1ccc(OP(=O)(O)O)cc1
Nature of the series: purified protein.

Substrate in series [1]: Nc1ncnc2c1ncn2[C@@H]1O[C@H](COP(=O)(O)OP(=O)(O)O)[C@@H](O)[C@H]1O
The experiment in a line: initial rates, phosphate release.

Substrate in series [2]: O=P(O)(O)OCC(O)CO
The experiment in a line: initial rates, phosphate release.

Substrate in series [3]: Cc1ncc(COP(=O)(O)O)c(C=O)c1O
The experiment in a line: initial rates, phosphate release.

Substrate in series [4]: O=P(O)(O)OC[C@@H](O)[C@@H](O)[C@H](O)[C@@H](O)CO
Nature of the series: initial rates, phosphate release.

Substrate in series [5]: O=P(O)(O)OC[C@H]1O[C@H](O[C@H]2O[C@H](CO)[C@@H](O)[C@H](O)[C@H]2O)[C@H](O)[C@@H](O)[C@@H]1O
Nature of the series: initial rates, phosphate release.

Substrate in series [6]: O=P(O)(O)OC[C@H]1O[C@@](CO)(O[C@H]2O[C@H](CO)[C@@H](O)[C@H](O)[C@H]2O)[C@@H](O)[C@@H]1O
Nature of the series: initial rates, phosphate release.

B1: BT1666 (Bacteroides thetaiotaomicron VPI-5482) (protein)
chain: MIKVLLLDVDGTLLSFETHKVSQSSIDALKKVHDSGIKIVIATGRAASDLHEIDAVPYDGVIALNGAECVLRDGSVIRKVAIPAQDFRKSMELAREFDFAVALELNEGVFVNRLTPTVEQIAGIVEHPVPPVVDIEEMFERKECCQLCFYFDEEAEQKVMPLLSGLSATRWHPLFADVNVAGTSKATGLSLFADYYRVKVSEIMACGDGGNDIPMLKAAGIGVAMGNASEKVQSVADFVTDTVDNSGLYKALKHFGVI
In general, kcat refers to the number of substrate molecules converted per active site and unit of time at saturation. For orientation: kcat/Km means the second-order rate constant that governs catalysis at low substrate concentration. Turning to B1, the Km in the series “purified protein” is listed as 0.51 ± 0.1 mM; in series [1] it was 1.0 (± 2) × 10^1 mM; in series [2], 5.3 ± 0.7 mM; in series [3] it was 4.1 ± 0.5 mM; in series [4], 6.5 ± 3 mM; in series [5], 2.2 ± 0.4 mM. For the same protein, the Km in series [6] amounted to 1.4 ± 0.3 mM. Moreover, the kcat in the series “purified protein” stood at 0.055 ± 0.007 s⁻¹; in series [1], 0.45 ± 0.06 s⁻¹; in series [2] it was 0.42 ± 0.03 s⁻¹; in series [3], 0.29 ± 0.01 s⁻¹; in series [4], 0.42 ± 0.06 s⁻¹; in series [5] it was 0.3 ± 0.03 s⁻¹. Also, in series [6], the kcat was found to be 0.11 ± 0.01 s⁻¹. Also, the catalytic efficiency (kcat/Km) in “purified protein” amounted to 110 M⁻¹ s⁻¹; in series [1], 45 M⁻¹ s⁻¹; in series [2] it was 79 M⁻¹ s⁻¹; in series [3], 70 M⁻¹ s⁻¹; in series [4], 65 M⁻¹ s⁻¹; in series [5] it was 140 M⁻¹ s⁻¹. In addition, the kcat/Km in series [6] worked out at 79 M⁻¹ s⁻¹.

For the origin of these results see publication PMC3356575.
